The values below come from the nanobody polyreactivity screen of Harvey et al. (2022).

The data set in a line: yeast display, Sf9 membrane polyspecificity reagent, FACS + sequencing; frameworks hold sequencing errors. In a few lines: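 After 36–48 hours of galactose induction, yeast (Saccharomyces cerevisiae BJ5465) displaying a synthetic nanobody library were stained at 4 °C for 1 hour with 10% biotinylated, detergent-solubilized Sf9 membrane reagent. Streptavidin microbeads enriched the stained cells before FACS sorting into low and high (top ~1%) gates on anti-HA and streptavidin fluorescence. Each clone's polyreactivity label reflects its gate of origin.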
Turning to “QVQLVESGGGLVQAGGSLRLICAASGSIFAYNAMGWYRQAPGKERELVAAITDSGGSTFYADSVKGRFTISRDNAKNTVYLQMNSLKPEDTAVYYCATSGDRLVWGQGTQVTVSS”, the “polyreactivity (PSR sort gate)” value is “low polyreactivity”.
On to “QVQLVESGGGLVQAGGSLRLICAASGSIFDFYAMGWYRQAPGKERELVAAISRNGGSTYYADSVKGRFTISRDNAKNTFYLQMNSLKPEDTAVYYCNKTVYVGAKEYDYWGQGTQVTVSS”, for which the “polyreactivity (PSR sort gate)” value is given as “high polyreactivity”.
On to “QVQLVESGGGLVQAGGSLRLICAASGSIFFVYDMGWYRQAPGKERELVAAITWSGGRTTYADSVKGRFTISRDNAKNTVYLQMNSMKPEDTAVYYCAKAWPDHWYSRYDYWGQGTQVTVSS”, for which the “polyreactivity (PSR sort gate)” value is “low polyreactivity”.
In the case of “QVQLVESGGGLVQAGGSLRLICAASGSIFGLYVMGWYRQAPGKERELVATITSGGSTYYADSVKGRFTISRDNAKNTVYLQMNSLKPEDTAVYYCNTRWTPSREYDYWGQGTQVTVSS”, the “polyreactivity (PSR sort gate)” value is “low polyreactivity”.
Turning to “QVQLVESGGGLVQAGGSLRLICAASGSIFHVNSMGWYRQAPGKERELVAGISDGGSTYYADSVKGRFTISRDNAKNTVYLQMNSLKPEDTAVSYCAAESEQWYSYVLSYDWEYDYWGQGTHVTVSS”, the “polyreactivity (PSR sort gate)” value was “low polyreactivity”.
With “QVQLVESGGGLVQAGGSLRLICAASGSIFLYYAMGWYRQAPGKEMELVAAITSTGSTYYADSVKGRFTISRDNAKNTVYLQMNSLKPEDTAVYYCAAELRRLFYAYGYWGQGTQVTVSS” the entry was “low polyreactivity”.
Regarding “QVQLVESGGGLVQAGGSLRLICAASGSIFNQNSMGWYRQAPGKERELVAVISSGGRTSYADSVKGRFTISRDNAKNTVFLLMNSLKPEDTAVYYCNREGWHYGPYGYWGQGTQVTVSS”, the “polyreactivity (PSR sort gate)” value is given as “low polyreactivity”.
With “QVQLVESGGGLVQAGGSLRLICAASGSIFNYYAMGWYRQAPGKERELVAGITTSGGSTYYADSVKGRFTISRDNAKNTVHLQMNSLKPEDTAVYYCAAYDYISSTYFLDDYWGQGTQVTVSS”, the “polyreactivity (PSR sort gate)” value is reported as “low polyreactivity”.
“QVQLVESGGGLVQAGGSLRLICAASGSIFRKNAMGWYRQAPGKERELVAAITGTGRTTYADSVMGRFTISRDNAKNTVYLQRNSLKPEDTAVYYCAADVNYYQHRLYYWGQGTQVTVSS”: the “polyreactivity (PSR sort gate)” value is reported as “low polyreactivity”.
“QVQLVESGGGLVQAGGSLRLICAASGSIFSFYAMGWYRQAPGKERELVAAITSDGSTDYADSVKGRFTISRDNAKNTVYLQMNCLKPEDTAVYYCAADYIVRVVSRYRYGYEYWGQGTQVTVSS”: the “polyreactivity (PSR sort gate)” value is given as “low polyreactivity”.
In the case of “QVQLVESGGGLVQAGGSLRLICAASGSIFTLYDMGWYRQAPGKERELVAAITSGGSTDYADSVKGRFTISRDNAKNTVYLQMNSLKPEDTAVYYCNAEAYPYWYRGASREYDYWGQGTQVTVSS” it was “low polyreactivity”.
In the case of “QVQLVESGGGLVQAGGSLRLICAASGSIFTYYVMGWYRQAPGKDRDLVAGISRAGSTNYADSVKGRFTISRDNAKNTVYLQMNSLKPEDTAVYYCAKSVWFVKHRKPHDYWGQGTQVTVSS” it was “low polyreactivity”; in that of “QVQLVESGGGLVQAGGSLRLICAASGSIFYRYAMGWYRQAPGKERELVAAISSNGVSTYYADSVKGRFTISRDNAKNTVYLQMNSLKPEDTAVYYCARDVYASPRLYTSRYNYWGQGTQVTVSS”, “low polyreactivity”.
With “QVQLVESGGGLVQAGGSLRLICAASGSIIHKNAMGWYRQAPGKERELVARITSSSGSTYYADSVKGRFTISRDNAKNTVYLQMNSLKPEDTAVYYFNAVYYHDVDFDYWGQGTQVTVSS”, the “polyreactivity (PSR sort gate)” value is “high polyreactivity”.
“QVQLVESGGGLVQAGGSLRLICAASGSILYKYAMGWYRQAPGKERELVAAISSRGGNTYYADSVKGRFTISRDNAKNTVYLHMNSLKPEDTAVYYCAADMWAGKYGEYDYWGQGTQVTVSS”: the “polyreactivity (PSR sort gate)” value was “high polyreactivity”.
In the case of “QVQLVESGGGLVQAGGSLRLICAASGSIQDWNAMGWYRQAPGKERELVAAITNGVSTHYADSVKGRFTISRDNAKNTVYLQMNSLKPEDTAVYYCAKAFWWRPEWWLRSARGSWGLGTQVTVSS” it was “low polyreactivity”; in that of “QVQLVESGGGLVQAGGSLRLICAASGSNFNPYAMGWYRQAPGKERELVAAINSGDSTNYADSVKGRFSISRDNAKNTLYLQMNSLKPEDTAVFYCANRYRRRYNYWGQGTQETVSS”, “high polyreactivity”; in that of “QVQLVESGGGLVQAGGSLRLICAASGSTFATYSMGWYRQAPGKERELVAAITLRGGRTYYADSVKGRFTISRDNAKNTVYLQMNSLKPEDTAVYYCAAEYYYLSFGLTWWRGFDYWGQGTHVTVSS”, “high polyreactivity”.
On to “QVQLVESGGGLVQAGGSLRLICAASGSTFAYNDMGWYRQAPGKERELVADIRSGGNTNYADSVKGRFTISRDNAKNTVYLQMNSLKPEDTAVYYCATDCYRIDVYHPDYRYDYWGQGTQVTVSS”, for which the “polyreactivity (PSR sort gate)” value is on record as “low polyreactivity”.
Consider “QVQLVESGGGLVQAGGSLRLICAASGSTFGPYSMGWYRQAPGKERELVAAIDQISSSTHYADSVKGRFTISRDNAKNTVYLQMNSLKPEDTAVYYCNADEFRYGYFPHYDYWGQGTQVTVSS”, for which the “polyreactivity (PSR sort gate)” value was “low polyreactivity”.
On to “QVQLVESGGGLVQAGGSLRLICAASGSTFGRNAMGWSRQAPGKERELVAAISSGGRTYYADSVKGRFTSSRDNAKHTVYVQLNSLKPEDSAVYYCARDDYGTLVKLYVRGFNYWGQGTQVTVSS”, for which the “polyreactivity (PSR sort gate)” value is recorded as “low polyreactivity”.
“QVQLVESGGGLVQAGGSLRLICAASGSTFKGYAMGWYIQSPGKERELVAAISWPGGRTSYADSVKGRFTISRDNAKNTVYLQMNSLKPEDTAVYYCNKAWWVQKGYFFYYWEQGTQVTVSS”: the “polyreactivity (PSR sort gate)” value is “high polyreactivity”.
With “QVQLVESGGGLVQAGGSLRLICAASGSTFLVYSMGWYRQEPGKERELVAAISYSGGSTYYADSVKGRFTISRDNSKNTVYLQLNSLKPEDTAVYYCNVEPVDRWYYKYDYWGQGTEVTVSS” the entry was “low polyreactivity”; with “QVQLVESGGGLVQAGGSLRLICAASGSTFPSYAMGWYRQAPGKERELVAAITWSGDSTYYADSVKGRFTILRDNAKNTVYLQMNSLKPEDTAVYYCAKDGGYPVGVLGGDDMEYWGQGTQVTVSS”, “low polyreactivity”; with “QVQLVESGGGLVQAGGSLRLICAASGSTFQDYGMGWYRQAPGKERELVAAITTGDITNYADSVKGRFTISRDNAKKTVYLQMNSLKAEDTAVYYCNAEPKFYPDAGDDYWGQGTQVTVSS”, “low polyreactivity”.
With “QVQLVESGGGLVQAGGSLRLICAASGSTFRWNALRWYRQAPGKERELVAAITWSGGSTYYADSVKVRFTISRDNAKNTVYVQMNSLKPEDTAVYYCNACGLFQYDSWGQGTKVTVSS”, the “polyreactivity (PSR sort gate)” value is “low polyreactivity”.
With “QVQLVESGGGLVQAGGSLRLICAASGSTFRYYAMGWYRQAPGKEREFVAAISLRAGSTYYADSVKGRFTISRDNAKNTVYLQMNSLKPEDTAVYYCAARRASYGTRRYDYWGQGTQVTVSS” the entry was “high polyreactivity”.
For the sequence “QVQLVESGGGLVQAGGSLRLICAASGSTFSENTMGSYRPAPGKERELVAAISFSGASTYYADSVKGRFTISRDYAKKTVYLQLNSLKPEDTAVYYCRRFTSSPKLALGEYDYWGQGTQVTVSS”, the “polyreactivity (PSR sort gate)” value is given as “low polyreactivity”.
Take “QVQLVESGGGLVQAGGSLRLICAASGSTFTGYAMGWYRQAPGKERELVAAINWRGGTTYYADSVKGRFTISRDNAKNTVYLQMNSLKPEDTAVYYCNKYRISGLSKFYYWGQGTQVTVSS”: the “polyreactivity (PSR sort gate)” value is “high polyreactivity”.
With “QVQLVESGGGLVQAGGSLRLICAASGSTFTTYAMGWYRQAPGKEREFVAGISWSGGSTRYADSVKGRFTISRDNAKNTVYLQMNSLKPEDTAVYYCAAGRKRDSKYYYWGQGTQVTVSS” the entry was “high polyreactivity”; with “QVQLVESGGGLVQAGGSLRLICAASGSTFYTYAMGWYRQAPGKERELVAAITYSGGTTYYADSVKGRFTISRDSAKNTVYLQMNSLKPEDTAFYYCNTRSYYYSDDYWGQGTQVTVSS”, “low polyreactivity”.
With “QVQLVESGGGLVQAGGSLRLICAASGTFVTYMGWYRQAPGKERELVAAIRNGGSTNYADSVKGRFTISRDNAKNTVYLQMNSLKPEDTAVYYCAARVTYSRGYRGGSRTKYDYWGQGTQVTVSS” the entry was “low polyreactivity”.
“QVQLVESGGGLVQAGGSLRLICAASGTIFSDNEMGRYRQAPGKEREFVADISSDGSTYYADSVKGRFTISRDNAKNTVYLQMNSLKPEDTAVYYCDADPIFSLYYHYGHFDYWGQGTQVTVSS”: the “polyreactivity (PSR sort gate)” value is given as “low polyreactivity”.
As to “QVQLVESGGGLVQAGGSLRLICAASGVNAMGWYRQAPGKEREFVAAITSIGGSTYYADSVKGRFTISRDNAKNSVYLQMNSLKPEDTAVYYCNTDRGPVKVSPLYESWGQGTQVTVSS”, the “polyreactivity (PSR sort gate)” value was “low polyreactivity”.
For the sequence “QVQLVESGGGLVQAGGSLRLICAASGYIFDYYAMGWYRQAPGKERELVAAISWSGGSTYYADSVKGRFTISRDNEKNTVSLQMNSLKPEDTAVYYCAAEGTYYGSDYWGQGTQVTVSS”, the “polyreactivity (PSR sort gate)” value is “high polyreactivity”.
With “QVQLVESGGGLVQAGGSLRLICAASGYIFKYYAMGWYRQAPGKERELVATINYSGGGTYYADSVKGRFTISRDNAKNTVYLQMNSLKPEDTAVYYCAAREKYISYSYYYWGQGTQVTVSS” the entry was “high polyreactivity”; with “QVQLVESGGGLVQAGGSLRLICAASGYIFYDYAMGWYRQAPGKERQLVATITSGGRTYADSVKGRFTISRDNAKNTVYLQMNSLKPEDTAVYYCAVDQYGAMDYWGQGTQVTVSS”, “low polyreactivity”; with “QVQLVESGGGLVQAGGSLRLICAASGYNCKYYAMGWYRAAPGKERELVASITSGGRTNYADSVKGRFTISRDNAKNTVYLQMNSLKPEDTAVYYCASRKPWKFVRTYTYDYWGQGTQLTVSS”, “high polyreactivity”.
In the case of “QVQLVESGGGLVQAGGSLRLICAASVSIFTKYAMGWYRQAPGKERELVADITRSGGSTYYADSVKGRFTISRDNAKNTVYLQMNSLKPEDTAVYYCAVDPVRYPYSYDYWGQGTQVTVSS” it was “high polyreactivity”.
On to “QVQLVESGGGLVQAGGSLRLICAAYGRIFQGYAMGWYRQAPGKERELVAAITLSGGSTYYADSVKGRFTISRDNAKNTVYLQMNSLKPEDTAVSYCNAYYPDEPSLYDYWGQGTQVTVSS”, for which the “polyreactivity (PSR sort gate)” value is listed as “low polyreactivity”.
Take “QVQLVESGGGLVQAGGSLRLICAAYGSTFKQYAMGWYRPAPGKERELVAAITRGGRTYYADSVKGRFTISRDNAKNTVYLQMNSLKPEDTAVYYCNAQSWRRYGHFYYWGQGTQVTVSS”: the “polyreactivity (PSR sort gate)” value is reported as “high polyreactivity”.
